Reference: patent US20210101937A1

Biological target: CD137 (UniProt Q07011)
Assay: cell-based or functional assay

Chain of CD137 (Q07011 24-255 limits assumed): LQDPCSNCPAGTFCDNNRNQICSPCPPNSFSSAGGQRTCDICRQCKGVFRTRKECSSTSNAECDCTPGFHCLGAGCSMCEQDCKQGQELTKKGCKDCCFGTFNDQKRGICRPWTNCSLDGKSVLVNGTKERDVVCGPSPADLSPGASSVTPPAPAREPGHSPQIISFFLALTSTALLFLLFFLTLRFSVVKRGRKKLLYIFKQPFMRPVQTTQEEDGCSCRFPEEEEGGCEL

EC50, CD137 reporter coculture assay with PC3 cells [nM]	Emax, CD137 reporter coculture assay with PC3 cells (fold over background)	EC50, CD137 reporter coculture assay with NCI-H292 cells [nM]	Emax, CD137 reporter coculture assay with NCI-H292 cells (fold over background)	Substance
0.54	42			BCY9173 (peptide)
		1.1	28	BCY10000 (peptide)
